Series [1] addresses T1, phi29 DNA polymerase wild-type (Bacteriophage phi29, UniProt P03680 1-575).
T1 sequence: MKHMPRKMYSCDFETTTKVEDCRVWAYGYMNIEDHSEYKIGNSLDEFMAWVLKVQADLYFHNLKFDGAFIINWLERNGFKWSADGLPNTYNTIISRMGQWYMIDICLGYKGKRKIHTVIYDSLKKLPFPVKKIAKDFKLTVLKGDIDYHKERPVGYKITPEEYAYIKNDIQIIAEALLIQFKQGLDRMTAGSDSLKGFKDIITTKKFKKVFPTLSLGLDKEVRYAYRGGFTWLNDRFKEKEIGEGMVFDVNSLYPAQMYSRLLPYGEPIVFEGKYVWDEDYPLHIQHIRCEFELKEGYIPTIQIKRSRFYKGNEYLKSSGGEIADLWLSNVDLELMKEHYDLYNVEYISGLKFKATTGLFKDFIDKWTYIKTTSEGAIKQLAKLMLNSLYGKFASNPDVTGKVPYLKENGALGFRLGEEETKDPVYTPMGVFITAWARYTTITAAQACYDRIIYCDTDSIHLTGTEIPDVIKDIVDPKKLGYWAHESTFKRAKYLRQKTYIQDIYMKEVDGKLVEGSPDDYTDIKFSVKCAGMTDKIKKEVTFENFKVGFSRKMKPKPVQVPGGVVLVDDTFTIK
Nature of the series: EMSA.

Series [2] addresses T2, phi29 DNA polymerase G410C/P562C (Bacteriophage phi29, UniProt P03680 1-575, G410C;P562C).
T2 sequence: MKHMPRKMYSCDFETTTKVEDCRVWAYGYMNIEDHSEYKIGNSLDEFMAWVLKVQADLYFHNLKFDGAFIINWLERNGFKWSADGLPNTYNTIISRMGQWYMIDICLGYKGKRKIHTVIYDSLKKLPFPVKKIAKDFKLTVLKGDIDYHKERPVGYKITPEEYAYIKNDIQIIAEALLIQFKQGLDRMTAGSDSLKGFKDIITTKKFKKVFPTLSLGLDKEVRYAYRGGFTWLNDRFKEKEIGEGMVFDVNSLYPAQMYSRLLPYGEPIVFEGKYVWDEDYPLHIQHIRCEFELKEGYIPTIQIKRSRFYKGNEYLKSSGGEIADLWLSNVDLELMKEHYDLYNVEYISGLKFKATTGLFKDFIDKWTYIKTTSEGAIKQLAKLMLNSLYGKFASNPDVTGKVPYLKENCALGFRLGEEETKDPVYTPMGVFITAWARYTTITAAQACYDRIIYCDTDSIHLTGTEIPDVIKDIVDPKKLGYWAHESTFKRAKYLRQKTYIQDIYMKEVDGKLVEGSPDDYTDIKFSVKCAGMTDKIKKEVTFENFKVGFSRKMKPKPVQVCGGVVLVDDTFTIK
Nature of the series: EMSA. Background: A gel shift assay detects complexes by their altered migration in electrophoresis.

B1: sp1/sp1c+6 (15/21mer primer/template) (dsDNA)
DNA 1: GATCACAGTGAGTAC
DNA 2: TCTATTGTACTCACTGTGATC
Take B1: the binding result in series [1] is listed as “binds”. The binding signal in series [2] is 3 % of wild-type (unit presumed).

The record behind these values is paper PMC2615600.
